# Patent publication US7375083B2, “Pharmaceutical compositions for prevention of overdose or abuse” (Shire LLC, priority 2003, dated 2008)
# Where a SMILES comes first, the peptide text is derived from it. The star is where a group is joined. X1 = COc1ccc2c3c1O[C@H]1C(O*)=CC[C@H]4[C@@H](C2)N(C)CC[C@]314
# Assay: Intravenous bioavailability of hydrocodone conjugates in rats, LC/MS/MS
# Settings: intravenous
# [1] = 1 mg/kg dose, hydrocodone plus hydromorphone
# [2] = 1 mg/kg dose, relative to hydrocodone bitartrate
# [3] = 1 mg/kg hydrocodone base content
# [4] = 1 mg/kg hydrocodone base content, 0 h
# [5] = 1 mg/kg hydrocodone base content, 0.1 h
# [6] = 1 mg/kg hydrocodone base content, 0.5 h
# [7] = 1 mg/kg hydrocodone base content, 1.0 h
# [8] = 1 mg/kg hydrocodone base content, 2.0 h
# [9] = 1 mg/kg hydrocodone base content, 4.0 h
structure (smiles),measurement,setting,value
"CC[C@H](C)[C@H](NC(=O)[C@H](Cc1ccccc1)NC(=O)[C@H](Cc1ccccc1)NC(=O)[C@H](Cc1ccc(O)cc1)NC(=O)[C@@H](N)Cc1ccc(O)cc1)C(=O)OC1=CC[C@H]2[C@H]3Cc4ccc(OC)c5c4[C@@]2(CCN3C)[C@H]1O5 [YYFFI[SEQ ID NO: 8]-HC, Tyr-Tyr-Phe-Phe-Ile[SEQ ID NO: 8]-(6-O)-Hydrocodone] (H-YYFFI-X1)",hydrocodone plus hydromorphone concentration,"1 mg/kg dose, 5 Minutes",171 ng/mL
same,hydrocodone plus hydromorphone concentration,"1 mg/kg dose, 15 Minutes",28 ng/mL
same,hydrocodone plus hydromorphone concentration,"1 mg/kg dose, 30 Minutes",22 ng/mL
same,hydrocodone plus hydromorphone concentration,"1 mg/kg dose, 60 Minutes",18 ng/mL
same,AUC (ng/ml h) 0-1 h,[1],40 ng·h/mL
same,Cmax,[1],171 ng/mL
same,Percent HC (AUC),[2],29%
same,Percent HC (Cmax),[2],72%
same,"HC (hydrocodone) AUC, Percent relative to hydrocodone bitartrate",[3],19%
same,HC (hydrocodone) Cmax,[3],8.7 ng/mL
same,"HC (hydrocodone) Cmax, Percent relative to hydrocodone bitartrate",[3],20.2%
same,"HC + HM AUC, Percent relative to hydrocodone bitartrate",[3],36%
same,HC + HM Cmax,[3],22.6 ng/mL
same,"HC + HM Cmax, Percent relative to hydrocodone bitartrate",[3],10.8%
same,"HM (hydromorphone) AUC, Percent relative to hydrocodone bitartrate",[3],33%
same,HM (hydromorphone) Cmax,[3],31.3 ng/mL
same,"HM (hydromorphone) Cmax, Percent relative to hydrocodone bitartrate",[3],12.4%
same,Mean HC (hydrocodone) concentration,[4],0 ng/mL
same,Mean HC + HM concentration,[4],0 ng/mL
same,Mean HM (hydromorphone) concentration,[4],0 ng/mL
same,Mean HC (hydrocodone) concentration,[5],8.75 ng/mL
same,Mean HC + HM concentration,[5],22.6 ng/mL
same,Mean HM (hydromorphone) concentration,[5],31.3 ng/mL
same,Mean HC (hydrocodone) concentration,[6],1.44 ng/mL
same,Mean HC + HM concentration,[6],13.5 ng/mL
same,Mean HM (hydromorphone) concentration,[6],14.9 ng/mL
same,Mean HC (hydrocodone) concentration,[7],0.92 ng/mL
same,Mean HC + HM concentration,[7],13.0 ng/mL
same,Mean HM (hydromorphone) concentration,[7],13.9 ng/mL
same,Mean HC (hydrocodone) concentration,[8],0.41 ng/mL
same,Mean HC + HM concentration,[8],13.1 ng/mL
same,Mean HM (hydromorphone) concentration,[8],13.5 ng/mL
same,Mean HC (hydrocodone) concentration,[9],0.33 ng/mL
same,Mean HC + HM concentration,[9],8.5 ng/mL
same,Mean HM (hydromorphone) concentration,[9],8.8 ng/mL
